Series [1] concerns the molecule itself. In words: dynamic light scattering; purified E1 in solution; oligomeric state; conditions not shown (Figure S3).
The target in series [2] is T1, E2 (Human papillomavirus 16 (Methods 4.2; …, UniProt P03120 1-365). Description: EMSA; 4 mM Mg2+, 1.4 mM ATP; E2 2.8 nM; C1* complex, E2 dimer. Particulars: protein: recombinant; tags: C-terminal 10xHis; chain copies: 2; label: 5' 32P; blunt. A general note: Mobility shift assays separate free from complexed probe on a gel.
The target of series [3] is T2, E1 helicase;E2 (Human papillomavirus 16 (Methods 4.2; …, UniProt P03114;P03120 1-649;1-365, |). Description: EMSA; 4 mM Mg2+, 1.4 mM ATP; E2 2.8 nM, E1 43-347 nM; C2* and C3* complexes. As to conditions: protein: recombinant;recombinant; tags: C-terminal 10xHis;C-terminal 10xHis; chain copies: 6;2; label: 5' 32P; blunt.
Series [4] addresses T1, E2. Description: EMSA; 4 mM Mg2+, 1.4 mM ATP; E2 2.8 nM; C1* complex, two E2 dimers. Particulars: protein: recombinant; tags: C-terminal 10xHis; chain copies: 2; label: 5' 32P; blunt.
Series [5] has as its target T2, E1 helicase;E2. In words: EMSA; 4 mM Mg2+, 1.4 mM ATP; E2 2.8 nM, E1 43-347 nM; C3* complex even at low E1. Particulars: protein: recombinant;recombinant; tags: C-terminal 10xHis;C-terminal 10xHis; chain copies: 6;2; label: 5' 32P; blunt.

The values that follow come from paper PMC12072466, “Mechanisms of Viral DNA Replication of Human Papillomavirus: E2 Protein-Dependent Recruitment of E1 DNA Helicase to the Origin of DNA Replication” (International Journal of Molecular Sciences, 2025).

T2 sequence (P03120 whole entry, one chain of several): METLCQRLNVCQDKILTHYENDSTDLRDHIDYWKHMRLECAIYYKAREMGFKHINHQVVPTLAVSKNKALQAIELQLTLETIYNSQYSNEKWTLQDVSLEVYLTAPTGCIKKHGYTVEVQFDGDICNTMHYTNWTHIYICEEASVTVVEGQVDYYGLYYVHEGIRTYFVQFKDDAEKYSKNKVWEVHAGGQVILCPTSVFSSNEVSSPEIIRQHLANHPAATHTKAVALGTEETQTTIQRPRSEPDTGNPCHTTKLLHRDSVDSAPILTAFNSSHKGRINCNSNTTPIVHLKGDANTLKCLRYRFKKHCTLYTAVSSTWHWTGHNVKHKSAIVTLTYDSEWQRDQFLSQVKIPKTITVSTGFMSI
T1 sequence (P03120 whole entry): as the sequence (P03120 whole entry, one chain of several) above

B1: full-length HPV16 E1 helicase (enzyme)
chain: MADPAGTNGEEGTGCNGWFYVEAVVEKKTGDAISDDENENDSDTGEDLVDFIVNDNDYLTQAETETAHALFTAQEAKQHRDAVQVLKRKYLVSPLSDISGCVDNNISPRLKAICIEKQSRAAKRRLFESEDSGYGNTEVETQQMLQVEGRHETETPCSQYSGGSGGGCSQYSSGSGGEGVSERHTICQTPLTNILNVLKTSNAKAAMLAKFKELYGVSFSELVRPFKSNKSTCCDWCIAAFGLTPSIADSIKTLLQQYCLYLHIQSLACSWGMVVLLLVRYKCGKNRETIEKLLSKLLCVSPMCMMIEPPKLRSTAAALYWYKTGISNISEVYGDTPEWIQRQTVLQHSFNDCTFELSQMVQWAYDNDIVDDSEIAYKYAQLADTNSNASAFLKSNSQAKIVKDCATMCRHYKRAEKKQMSMSQWIKYRCDRVDDGGDWKQIVMFLRYQGVEFMSFLTALKRFLQGIPKKNCILLYGAANTGKSLFGMSLMKFLQGSVICFVNSKSHFWLQPLADAKIGMLDDATVPCWNYIDDNLRNALDGNLVSMDVKHRPLVQLKCPPLLITSNINAGTDSRWPYLHNRLVVFTFPNEFPFDENGNPVYELNDKNWKSFFSRTWSRLSLHEDEDKENDGDSLPTFKCVSGQNTNTL
notes: Replication protein E1 (DNA helicase) of human papillomavirus type 16, full-length, codon-optimized synthetic gene in pET28a; about 75 kDa on SDS-PAGE; Hexamer in solution by dynamic light scattering; also called HPV E1; E1 DNA helicase
For B1, the “stoichiometry N” value in series [1] was determined as 6.

B2: Oligo III, E2 BS (24 bp) (dsDNA)
DNA 1: CTTGCAACCGTTTTCGGTTGCCCT
DNA 2: AGGGCAACCGAAAACGGTTGCAAG
On to B2, for which the binding result in series [2] is recorded as “binds”.

B3: Oligo I, E2 BS1+2+E1BS (124 bp) (dsDNA)
DNA 1: GTAACCCACACCCTACATATTTCCTTCTTATACTTAATAACAATCTTAGTTTAAAAAAGAGGAGGGACCGAAAACGGTTCAACCGAAAACGGTTATATATAAACCAGCCCAAAAAATTAGCAGA
DNA 2: TCTGCTAATTTTTTGGGCTGGTTTATATATAACCGTTTTCGGTTGAACCGTTTTCGGTCCCTCCTCTTTTTTAAACTAAGATTGTTATTAAGTATAAGAAGGAAATATGTAGGGTGTGGGTTAC
As for B3, the binding result in series [3] and in series [4] was “binds” throughout.

B4: Oligo II, E2 BS1+2 (50 bp) (dsDNA)
DNA 1: GGCGGGACCGAAAACGGTTCAACCGAAAACGGTTATATATAAACCAGCCC
DNA 2: GGGCTGGTTTATATATAACCGTTTTCGGTTGAACCGTTTTCGGTCCCGCC
B4: in series [5], the binding result was “binds”.

The term stoichiometry N denotes a count of units in the complex or per binding partner.
